Columns and labels:
[1] = test system: E. coli cells; assay: GC-MS of methylketones in spent media of E. coli cells expressing ShMKS1, ShMKS2 or ShMKS2 (D79A); assay type: cell-based, Escherichia coli; settings: with or without acid and heat treatment
Experimental: To test if expression of either ShMKS1 or ShMKS2 (without its transit peptide) in E. coli results in the formation of 3-ketoacids, we collected spent media of bacterial cells expressing each of them (by centrifuging out the cells at the end of the incubation period), heated the spent media at 75° C. for 30 min in the presence of 1 M sulfuric acid, extracted with hexane, then injected the hexane fraction in a GC-MS. […] On the other hand, the spent medium of E. coli cells expressing ShMKS2 contained 5.6±0.32 μg/μL of total methylketones, and the amount of methylketones increased […], to 40.7±2.1 μg/μL, after the spent medium was treated with acid and heat (FIG. 17).
The coding regions of ShMKS1 and ShMKS2 (minus the transit peptide-encoding region) were each amplified by PCR and inserted into the E. coli expression vector pEXP-TOPO-CT (Invitrogen). The expression vectors were introduced into E. coli BL21 Star (DE3) cells, and gene expression was induced by the addition of 0.5 mM IPTG after the culture optical density at 600 nm had reached 0.65. After induction with IPTG and growth at 18° C. overnight, the cells expressing ShMKS1 or ShMKS2 were centrifuged at 5000 rpm for 15 minutes, and 1-mL aliquots of the spent medium were placed in individual vials for further analysis. […]

[2] = Treatment of spent medium of ShMKS2-expressing E. coli with purified ShMKS1; assay type: biochemical; settings: 3 μg/mL final concentration, incubated 2 h prior to hexane extraction
Experimental: Moreover, the treatment with purified ShMKS1 seemed to favor an increase in 2-tridecanone over other methylketones (FIG. 18).
Aliquots (1 mL) of the spent medium of E. coli expressing ShMKS2, obtained by centrifuging the culture solution after the incubation time at 5,000 rpm for 15 min and collecting the solution without the cells, were treated in the following ways: 1. Incubated with 40 μl (3 μg) of purified MKS1 in phosphate buffer (12.5 mM NaH2PO4, 125 mM NaCl, 2 mM DTT, pH 6.8) for 2 hrs at 30° C. 3. Incubated at 75° C. for 30 min followed by 30 min at 30° C. 4. Incubated with 1 mL of 2M H2SO4 at 75° C. for 30 min followed by 30 min at 30° C. After the various treatments, 1 mL of hexane containing 5 ng/μL linalool as an internal standard was added and the resulting mixture was vortexed and centrifuged at 5000 rpm for 10 min. Two μL of the resulting extract were injected into the GC-MS for determination of methylketones. GC-MS and product analysis were performed as described by Ben-Israel et al, (2009) Multiple biochemical and morphological factors underlie the production of methylketones in tomato trichomes, Plant Physiology 151: 1952-1964.

[3] = test system: 3-ketomyristoyl-ACP; assay: In vitro thioesterase activity assay; assay type: biochemical
Experimental: To examine the potential thioesterase activity of ShMKS1 and ShMKS2 in vitro, we added 2.5 μg of each protein to a 500 μL solution of freshly prepared 3-ketomyristoyl-ACP. This protein-linked substrate was prepared using a sequential in vitro enzymatic system involving the addition of multiple starting materials and enzymes and the reaction allowed to proceed for 5 hr (see Examples, Materials, and Methods). Due to the highly unstable nature of 3-ketomyristoyl-ACP, this compound was not further purified but instead the solution in which it was synthesized was used as the “substrate solution” for qualitative in vitro thioesterase activity assays.
Aliquots of this substrate solution were incubated with buffer, ShMKS1, ShMKS2, or both ShMKS1 and ShMKS2 for 30 min at 23° C. […]
3-Ketomyristoyl-ACP was synthesized in a 500 μL reaction volume containing 1,3-bis(tris(hydroxymethyl)methylamino) propane (20 mM, pH 7.0), malonyl-CoA (0.2 mM), lauroyl-CoA (0.2 mM), ShACP (0.1 mM), EcFabD (10 μg) and MtFabH (10 μg). […] Hexane extracts were analyzed by GC-MS as described above. The values for heat-treated samples shown in FIG. 20 were corrected for loss of methylketones during the heating step, as determined by comparisons with standards.

B1: ShMKS1: methylketone synthase 1 from Solanum habrochaites glabratum (SEQ ID NO: 17); recombinant, 3-ketoacid decarboxylase (protein)
chain: MEKSMSPFVKKHFVLVHTAFHGAWCWYKIVALMRSSGHNVTALDLGASGINPKQALQIPNFSDYLSPLMEFMASLPANEKIILVGHALGGLAISKAMETFPEKISVAVFLSGLMPGPNIDATTVCTKAGSAVLGQLDNCVTYENGPTNPPTTLIAGPKFLATNVYHLSPIEDLALATALVRPLYLYLAEDISKEVVLSSKRYGSVKRVFIVATENDALKKEFLKLMIEKNPPDEVKEIEGSDHVTMMSKPQQLFTTLLSIANKYK
modifications: ShMKS1
notes: recombinant, 3-ketoacid decarboxylase
methylketones in spent medium [1]: no methylketones | levels of extractable methylketones vs spent medium treated with phosphate buffer alone [2]: significantly higher | amount of 2-tridecanone vs buffer-incubated sample treated with acid and heat ([3]; 2.5 μg protein, 30 min at 23° C., directly extracted with hexane): slightly higher, but not significantly so | in vitro thioesterase activity ([3]; 3-ketomyristoyl-ACP substrate solution): little or no

— patent publication US20110289632A1, “METHYLKETONE SYNTHASE, PRODUCTION OF METHYLKETONES IN PLANTS AND BACTERIA” (The Regents of the University of Michigan, priority 2009, published 2011)
